Where “and” joins values, the source holds several entries; their conditions need not be identical. Equal values may be shown once.
Columns and labels:
[1] = substrate: Nc1ncnc2c1ncn2[C@@H]1O[C@H](COP(=O)(O)OP(=O)(O)O)[C@@H](O)[C@H]1O; experiment: purified protein; assay type: biochemical, Acinetobacter baumannii; conditions: 25 °C, pH 8.5, 1.6 mM PRPP, 15 mM MgCl2, 100 mM KCl, unlabelled enzyme
[2] = substrate: Nc1ncnc2c1ncn2[C@@H]1O[C@H](COP(=O)(O)OP(=O)(O)O)[C@@H](O)[C@H]1O; experiment: purified protein, by the assay type; conditions: 25.0 °C
Procedure: (§1) Kinetics and thermal denaturation data were analysed by the nonlinear regression function of SigmaPlot 14.0 (SPSS Inc.). Thermal denaturation data were fitted to Eq. (1). Substrate saturation curves at a fixed concentration of the co-substrate were fitted to Eq. (2). Initial rate data at varying concentrations of HisZ were fitted to Eq. (3). The concentration of ATPPRT at any concentration of AbHisGS and AbHisZ was calculated according to Eq. (4). Histidine dose-response data were fitted to Eq. (5). Single-turnover data with WT-AbATPPRT isotopologues were fitted to Eq. (6). Plots of kcat ratios against relative viscosity were fitted to Eq. (7). Temperature-rate profile for AbHisGS was fitted to Eq. (8). Single-turnover data with R70A-AbATPPRT isotopologues were fitted to Eq. (9). In Eqs. […] While kcats for [^13C,^15N]AbHisGS and [^2H,^13C,^15N]AbHisGS are marginally lower than for unlabelled AbHisGS and [^15N]AbHisGS, the overlapping nature of most data points in Fig. 1c disagrees with distinguishable heavy-enzyme kinetic isotope effects on kcat (^HEkcat). […] This was further probed by pre-steady-state kinetics under multiple-turnover conditions. The AbHisGS reaction had been shown not to have a burst of product formation, which is reproduced here for unlabelled AbHisGS, whose traces overlap with those for [^2H,^13C,^15N]AbHisGS (Supplementary Fig. 5). S5 Supplementary Figure 4 Substrate saturation curves for unlabelled AbATPPRT with AbHisGS purified from cultures grown in M9 and M9 with high cell density compared with previously published data (reproduced here) for unlabelled AbATPPRT with AbHisGS purified from cultures grown in LB. For the M9 and M9 high cell density curves, all data points are shown for two independent measurements, except for the previously published LB curves, where data are the mean of two independent measurements. Lines are best fit of the data to equation (2): solid line for M9 high cell density curves, long-dashed line for M9 curves, and short-dashed line for previously published LB curves. […]

[3] = substrate: Nc1ncnc2c1ncn2[C@@H]1O[C@H](COP(=O)(O)OP(=O)(O)OP(=O)(O)O)[C@@H](O)[C@H]1O; experiment: purified protein, by the assay type; conditions: 25.0 °C
Procedure: as §1

[4] = substrate: O=P(O)(O)OC[C@H]1O[C@H](OP(=O)(O)OP(=O)(O)O)[C@H](O)[C@@H]1O; experiment: purified protein, by the assay type; conditions: 25.0 °C
Procedure: as §1

[5] = substrate: Nc1ncnc2c1ncn2[C@@H]1O[C@H](COP(=O)(O)OP(=O)(O)OP(=O)(O)O)[C@@H](O)[C@H]1O; experiment: purified protein, by the assay type; conditions: 25.0 °C; remark: listed apart in the source
Procedure: as §1, with “5).” for “5). S5 Supplementary Figure 4 Substrate saturation curves for unlabelled AbATPPRT with AbHisGS purified from cultures grown in M9 and M9 with high cell density compared with previously published data (reproduced here) for unlabelled AbATPPRT with AbHisGS purified from cultures grown in LB. For the M9 and M9 high cell density curves, all data points are shown for two independent measurements, except for the previously published LB curves, where data are the mean of two independent measurements. Lines are best fit of the data to equation (2): solid line for M9 high cell density curves, long-dashed line for M9 curves, and short-dashed line for previously published LB curves.”

[6] = substrate: O=P(O)(O)OC[C@H]1O[C@H](OP(=O)(O)OP(=O)(O)O)[C@H](O)[C@@H]1O; experiment: purified protein, by the assay type; conditions: 25.0 °C; remark: listed apart in the source
Procedure: as §1, with “5).” for “5). S5 Supplementary Figure 4 Substrate saturation curves for unlabelled AbATPPRT with AbHisGS purified from cultures grown in M9 and M9 with high cell density compared with previously published data (reproduced here) for unlabelled AbATPPRT with AbHisGS purified from cultures grown in LB. For the M9 and M9 high cell density curves, all data points are shown for two independent measurements, except for the previously published LB curves, where data are the mean of two independent measurements. Lines are best fit of the data to equation (2): solid line for M9 high cell density curves, long-dashed line for M9 curves, and short-dashed line for previously published LB curves.”

[7] = substrate: O=P(O)(O)OC[C@H]1O[C@H](OP(=O)(O)OP(=O)(O)O)[C@H](O)[C@@H]1O; experiment: purified protein, by the assay type; conditions: 25.0 °C; remark: listed apart in the source
Procedure: To assess the effect of increased AbHisGS mass in catalysis, we purified AbHisGS from heterologous expression in M9 medium supplemented with different isotopes to produce AbHisGS carrying natural isotope abundance (unlabelled AbHisGS), [^15N]AbHisGS, [^13C,^15N]AbHisGS, and [^2H,^13C,^15N]AbHisGS (the ^2H is incorporated in non-exchangeable positions) (Supplementary Fig. 1). […] AbATPPRT substrate saturation curves at 25 °C using unlabelled AbHisGS produced from heterologous expression in LB medium by our published protocol[30] and unlabelled AbHisGS generated here from expression in M9 medium and in M9 with high cell density induction[47] […] S5 Supplementary Figure 4 Substrate saturation curves for unlabelled AbATPPRT with AbHisGS purified from cultures grown in M9 and M9 with high cell density compared with previously published data (reproduced here) for unlabelled AbATPPRT with AbHisGS purified from cultures grown in LB. For the M9 and M9 high cell density curves, all data points are shown for two independent measurements, except for the previously published LB curves, where data are the mean of two independent measurements. […] Kinetics and thermal denaturation data were analysed by the nonlinear regression function of SigmaPlot 14.0 (SPSS Inc.). […] The concentration of ATPPRT at any concentration of AbHisGS and AbHisZ was calculated according to Eq. (4). […]

B1: AbATPPRT (Acinetobacter baumannii ACICU) (protein)
chain: MNDVRNDDPNFNVMGNFDHGLTLALSKGRILKETLPLLATAGINLLEDPEKSRKLIFPTTHKQVRILILRASDVPTYVENGAADLGVAGKDVLMEHGAQHVYELLDLQIAKCKLMTAGKVGMERPKGRLKIATKYVNLTRQYYASLGEQVDVIKLYGSMELAPLVGLGDYIVDVVDTGNTLRANGLEPLEEICKVSSRLIVNKASFKRKQVLLNPIISQLEQAVQSR
notes: hetero-octameric holoenzyme (two HisGS dimers flanking a HisZ tetramer) reconstituted in vitro from separately purified recombinant AbHisGS (E. coli BL21(DE3)) and AbHisZ; unlabelled (natural isotope abundance)
- Km [1]: 350 ± 40 µM
- kcat [1]: 16.6 ± 0.4 s⁻¹
- Km [2]: 300 µM and 280 µM
- Km [3]: 130 ± 20 µM
- Km [4]: 120 ± 10 µM
- Km [5]: 170 ± 30 µM and 210 ± 30 µM
- Km [6]: 80 µM and 85 µM
- Km [7]: 96 µM
- kcat [7]: 16.6 ± 0.4 s⁻¹
